According to patent publication US9249224B2 (RINAT NEUROSCIENCE CORP., priority 2011, dated 2016):

System: cyno GHR
Assay: STAT5 phosphorylation in vitro assay, cyno GHR-transfected HEK293 cells
Assay type: cell-based, cynomolgus monkey
Conditions: for fluorescent signal ave (phospho-STAT5): Table 8, cyno GHR-transfected cells
Experimental: This Example illustrates the effect of GHR antibodies in an in vitro STAT5 phosphorylation assay. In this Example, the ability of GHR antibodies to block GHR downstream signaling was tested in vitro using human GHR overexpressing cells and cyno GHR overexpressing cells.
GHR antagonist antibody Ab13 was tested for its ability to block STAT5 in an in vitro assay. HEK293 cells were transiently transfected with either DNA encoding full-length human GHR (SEQ ID NO: 140) or DNA encoding full-length cyno GHR (SEQ ID NO: 141). Cells were cultured in freestyle media for approximately 60 hours before testing. Cells were washed with DPBS (Dulbecco's Phosphate-Buffered Saline) and resuspended in Freestyle media, then counted using a hemocytometer. 1×10^6 cells were seeded per well in 6-well plates in 2 mls of Freestyle media. Cells were incubated for 2 hours at 37° C., then treated with 5, 50, or 500 nM Ab13 antibody in media. Cells were incubated at 37° C. with gentle mixing for 5 min with antibodies. 4.5 nM GH (Genotropin) was then added to all but control wells. Cells were incubated with GH at 37° C. with gentle mixing for 10 minutes.
Following incubation with GH, 2 ml of ice cold DPBS with 1× protease inhibitor cocktail (Roche) and 1 mM sodium orthovanadate (BioLabs) were added to each well and the plates were placed on ice. Cells were transferred to 5 ml tubes and spun down to create a cell pellet and the wash buffer was aspirated, leaving the cell pellet.
Reagents from Millipore™ MILLIPLEX® MAP Cell Signaling Buffer and Detection Kit (cat. #48-602) were used to lyse and treat the cell pellets. Millipore lysis buffer with 1× protease inhibitor cocktail and 1 mM sodium orthovanadate was added to each pellet at a volume of 200 ul/pellet. Cells were vortexed and incubated for 15 minutes at room temp with occasional vortexing. Millipore Assay buffer 2 with 1× protease inhibitor cocktail and 1 mM sodium orthovanadate was then added to the lysates at 300 ul/well.
Millipore™ MILLIPLEX® MAP Phospho STAT5N8 (Tyr694/699) MAPmate™ beads (Cat. #46-641) were resuspended in Assay Buffer 2 (from Millipore™ kit cat. #48-602) and loaded on a 96-well filter plate (provided in kit) at 25 ul/well, 25 ul/well of sample lysate was added to the wells and the beads and samples were incubated overnight at 4′C with shaking in the dark.
The liquid was then aspirated using a vacuum manifold and the remaining beads were washed using Millipore™ kit wash buffer. 25 ul Millipore™ kit detection antibody was added and incubated for 1 hour at room temperature with shaking in the dark. The detection antibody was vacuumed through and 25 ul kit streptavidin—Phycoerythrin was added and incubated in the dark for 15 min with shaking. 25 ul kit amplification buffer was then added and incubated for 15 min with shaking in the dark. The liquid was aspirated using a vacuum manifold, and the beads were resuspended in 150 ul kit assay buffer 2 and mixed on a shaker for 5 minutes before reading the plate.
The plate was read using a Luminex™ 200 instrument and fluorescent signal emitted from the samples was measured, The results of the STAT5 assay are shown in Tables 5 and 6. “Ave” indicates the average fluorescent signal, and “SEM” indicates the standard error of the mean.
Antibodies SS3 and SS1 (hIgG2Δa) were tested using a STAT5 phosphorylation assay. For the STAT5 assay, full-length human GHR overexpressing HEK293 cells or full-length cyno GHR-overexpressing HEK293 cells were cultured, counted by automated cell counter, and seeded in warm freestyle media in 12-well plates (5×10^5 cells/well in 1 ml media). Cells were allowed to settle for 3 hours at 37° C. then treated with 2.5, 5, 50, or 500 nM of SS1 or SS3 in media. […] Cells were incubated with GH at 37° C. with gentle mixing for 10 minutes.
Reagents from Millipore™ MILLIPLEX® MAP Cell Signaling Buffer and Detection Kit (cat, #48-602) were used to lyse and treat the cell pellets. […]

cyno GHR, sequence (as listed by the source): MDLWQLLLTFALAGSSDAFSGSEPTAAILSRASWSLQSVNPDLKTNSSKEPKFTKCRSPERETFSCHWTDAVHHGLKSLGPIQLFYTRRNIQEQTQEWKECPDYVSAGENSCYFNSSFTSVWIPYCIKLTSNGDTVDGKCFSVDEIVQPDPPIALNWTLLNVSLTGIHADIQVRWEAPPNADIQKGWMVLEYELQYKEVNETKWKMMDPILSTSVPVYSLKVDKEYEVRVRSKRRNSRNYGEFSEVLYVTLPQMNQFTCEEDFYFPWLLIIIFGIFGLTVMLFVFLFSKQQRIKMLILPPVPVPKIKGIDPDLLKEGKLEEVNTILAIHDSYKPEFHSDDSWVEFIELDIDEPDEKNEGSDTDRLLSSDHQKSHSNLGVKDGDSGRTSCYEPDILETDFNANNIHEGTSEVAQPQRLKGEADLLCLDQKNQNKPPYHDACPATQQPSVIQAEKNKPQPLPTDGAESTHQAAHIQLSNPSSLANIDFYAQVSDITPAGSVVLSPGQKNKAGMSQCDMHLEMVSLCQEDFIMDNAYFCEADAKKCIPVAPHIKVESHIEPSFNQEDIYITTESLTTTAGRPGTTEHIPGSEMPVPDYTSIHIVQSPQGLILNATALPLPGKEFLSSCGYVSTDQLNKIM

B1: SS1: humanized GHR antagonist antibody; VL SEQ ID NO: 7, VH SEQ ID NO: 8; hIgG2Δa heavy chain SEQ ID NO: 134, light chain SEQ ID NO: 135 (antibody)
heavy: EVQLVESGGGLVKPGGSLRLSCAASGFTFSDAWMDWVRQAPGKGLEWVAEIRSKANYHATYYAESVKGRFTISRDDSKNTLYLQMNSLKTEDTAVYYCTLIRDYWGQGTLVTVSSASTKGPSVFPLAPCSRSTSESTAALGCLVKDYFPEPVTVSWNSGALTSGVHTFPAVLQSSGLYSLSSVVTVPSSNFGTQTYTCNVDHKPSNTKVDKTVERKCCVECPPCPAPPVAGPSVFLFPPKPKDTLMISRTPEVTCVVVDVSHEDPEVQFNWYVDGVEVHNAKTKPREEQFNSTFRVVSVLTVVHQDWLNGKEYKCKVSNKGLPSSIEKTISKTKGQPREPQVYTLPPSREEMTKNQVSLTCLVKGFYPSDIAVEWESNGQPENNYKTTPPMLDSDGSFFLYSKLTVDKSRWQQGNVFSCSVMHEALHNHYTQKSLSLSPGK
light: EIVLTQSPGTLSLSPGERATLSCTATSSVSSSYLNWYQQKPGQAPRLLIYSTSNLASGIPDRFSGSGSGTDFTLTISRLEPEDFAVYYCHQYHRSTPTFGGGTKVEIKRTVAAPSVFIFPPSDEQLKSGTASVVCLLNNFYPREAKVQWKVDNALQSGNSQESVTEQDSKDSTYSLSSTLTLSKADYEKHKVYACEVTHQGLSSPVTKSFNRGEC
modifications: Humanized and/or affinity matured antibody sequence
B1 was tested, and the “fluorescent signal ave (phospho-STAT5)” value (2.5 nM antibody + 4.5 nM GH) was 496, the “fluorescent signal ave (phospho-STAT5)” value (5 nM antibody + 4.5 nM GH) was 223 and the “fluorescent signal ave (phospho-STAT5)” value (50 nM antibody + 4.5 nM GH) was 17. For the same molecule, the “fluorescent signal ave (phospho-STAT5)” value (500 nM antibody + 4.5 nM GH) was 12 and the “effect on GH-stimulated STAT5 signaling” value (cells expressing cyno GHR, 4.5 nM GH) was “blocked STAT5 signaling in a dose-dependent manner”.
